Test system: Arabidopsis thaliana T1 plants
Assay: Topramezone tolerance of transgenic Arabidopsis thaliana T1 plants (pesticide damage grade by bleached leaf area, score, resistance evaluation)
Format: in vivo
Conditions: HPPDs from different species, 7 DAT; for Classification and statistics of pesticide damage grade Grade 0 / Classification and statistics of pesticide damage grade Grade 1 / Classification and statistics of pesticide damage grade Grade 2 / Classification and statistics of pesticide damage grade Grade 3: number of plants (of 16) in this grade; for Scores: score for pesticide damage 0-100
Summary of the method: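 Eighteen days after sowing, wild-type and HPPD-transgenic T1 Arabidopsis receive a topramezone spray at 1×, 2× or 4× field rate (25–100 g ai/ha) or water. Seven days later each plant is graded by its proportion of bleached leaf area.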

| Molecule | Classification and statistics of pesticide damage grade Grade 0 (topramezone 25 g ai/ha (1x)) | Classification and statistics of pesticide damage grade Grade 1 (topramezone 25 g ai/ha (1x)) | Classification and statistics of pesticide damage grade Grade 2 (topramezone 25 g ai/ha (1x)) | Classification and statistics of pesticide damage grade Grade 3 (topramezone 25 g ai/ha (1x)) | Classification and statistics of pesticide damage grade Grade 0 (topramezone 100 g ai/ha (4x)) | Classification and statistics of pesticide damage grade Grade 1 (topramezone 100 g ai/ha (4x)) | Classification and statistics of pesticide damage grade Grade 2 (topramezone 100 g ai/ha (4x)) | Classification and statistics of pesticide damage grade Grade 3 (topramezone 100 g ai/ha (4x)) | Scores (topramezone 25 g ai/ha (1x)) | Scores (topramezone 100 g ai/ha (4x)) | Resistance evaluation (topramezone 25 g ai/ha (1x)) | Resistance evaluation (topramezone 100 g ai/ha (4x)) |
| --- | --- | --- | --- | --- | --- | --- | --- | --- | --- | --- | --- | --- |
| N1HPPDm-F372A-02: Sphingobium sp. N1 HPPD mutant F372A, SEQ ID NO: 150 (protein, N1HPPDm-F372A Amino Acid Sequence) MAADSENPLGLHGFAFAEFTSPDPAAMARQFEQLGFVPAARRKDRGLTLYRQGRIAFILNAGEGEQASAFRAAHGPSANGMAFNVADAKAAHRHAIQSGATDADTAQSALPGTYAIEGIGDSLLYLVDSDPFADWDEVPGWREASAERGVGLDLLDHLTHNVRRGQMRVWSEFYATLFGFEEQKFFDIKGQATGLFSQAMIAPDHEIRIPLNESQDDNSQIEEFIREYNGEGIQHLALTTPDIYSTVEKLRANGVRLQDTIDTYYDLVDERVPGHGEDLARLRKNRILIDGDVHDEGLLLQIATETMFGPIFFEIIQRKGNEGFGNGNFQVLYESIELDQIRRGVVTVDA | 16 | 0 | 0 | 0 | 16 | 0 | 0 | 0 | 0 | 0 | highly resistant (highly resistant plants (scores 0-15)) | highly resistant (highly resistant plants (scores 0-15)) |
| N3HPPD-02: native Burkholderia sp. N3 HPPD, SEQ ID NO: 159 (protein, N3HPPD Amino Acid Sequence (Burkholderia)) MQIPNWENPVGTDGFEFIEYTAPDPKALGQLFERMGFTAIARHRHKDVTVYRQGDINFIINAEPHSFAQRFARLHGPSICAIAFRVQDAAKAYQHALELGAWGFDNKTGPMELNIPAIKGIGDSLIYFVDRWRGKNGAQPGAIGDISIYDVDFEPIAGANPNPAGHGLTYIDHLTHNVHRGRMQEWAEFYERLFNFREVRYFDIEGKVTGVKSKAMTSPCGKIRIPINEEGSDTAGQIQEYLDAYHGEGIQHIALGTNDIYGAVDGLRGKEVKLLDTIDTYYELVDRRVPDHGESLDELKKRKILIDGARDDLLLQIFTENQIGPIFFEIIQRKGNQGFGEGNFKALFESIELDQIRRGVVQDKA | 0 | 6 | 8 | 2 | 0 | 0 | 0 | 16 | 58 | 100 | poorly resistant (poorly resistant plants (scores 34-67)) | non-resistant (non-resistant plants (scores 68-100)) |
| N2HPPD-02: native Sphingobium sp. N2 HPPD, SEQ ID NO: 153 (protein, N2HPPD Amino Acid Sequence (Sphingobacterium)) MTLFDNPLGLDGFEFVEFSAPAKGMLEPVFAAMGFVMIARHRSKDVQLWRQGGINLIANYEPRSPAAYFAAEHGPSACGMGWRVRNAAKAYELAVERGAEPVDVKTGPMELRLPAIRGIGGSIIYLIDRYEDEDGGLSIYDIDFVYEPGVDRHPEGAGFKIIDHLTHNVYGGRMAHWASFYERVFGFREIRYFDIKGEYTGLTSKAMTAPDGKIRIPLNEEGKAGGGQIEEFLRAYNGEGIQHIAFLCDDLIAAWDKLKALGTPLMTAPPATYYEMLDERLPGHGEPVAELQKRGILLDGSTQQGDPRLLLQIFGQATIGPVFFEFIQRKKDEGFGEGNFTALFESMERDQLRRGTLNAGESA | 0 | 1 | 15 | 0 | 0 | 0 | 0 | 16 | 65 | 100 | poorly resistant (poorly resistant plants (scores 34-67)) | non-resistant (non-resistant plants (scores 68-100)) |
| N2HPPDm-F372A-02: Sphingobium sp. N2 HPPD mutant F372A, SEQ ID NO: 156 (protein, N2HPPDm-F372A Amino Acid Sequence) MTLFDNPLGLDGFEFVEFSAPAKGMLEPVFAAMGFVMIARHRSKDVQLWRQGGINLIANYEPRSPAAYFAAEHGPSACGMGWRVRNAAKAYELAVERGAEPVDVKTGPMELRLPAIRGIGGSIIYLIDRYEDEDGGLSIYDIDFVYEPGVDRHPEGAGFKIIDHLTHNVYGGRMAHWASFYERVFGFREIRYFDIKGEYTGLTSKAMTAPDGKIRIPLNEEGKAGGGQIEEFLRAYNGEGIQHIAFLCDDLIAAWDKLKALGTPLMTAPPATYYEMLDERLPGHGEPVAELQKRGILLDGSTQQGDPRLLLQIAGQATIGPVFFEFIQRKKDEGFGEGNFTALFESMERDQLRRGTLNAGESA | 16 | 0 | 0 | 0 | 16 | 0 | 0 | 0 | 0 | 0 | highly resistant (highly resistant plants (scores 0-15)) | highly resistant (highly resistant plants (scores 0-15)) |
| TaHPPD-02: native Triticum aestivum HPPD, SEQ ID NO: 39 (protein, listed as Triticum aestivum, TaHPPD Amino Acid Sequence) MPPTPTTPAATGAGAAAAVTPEHARPRRMVRFNPRSDRFHTLSFHHVEFWCADAASAAGRFAFALGAPLAARSDLSTGNSVHASQLLRSGNLAFLFTAPYANGCDAATASLPSFSADAARRFSADHGLAVRSIALRVADAAEAFRASVDGGARPAFSPVDLGRGFGFAEVELYGDVVLRFVSHPDGTDVPFLPGFEGVSNPGAVDYGLTRFDHVVGNVPELASAAAYVAGFTGFHEFAEFTTEDVGTAESGLNSMVLANNSEGVLLPLNEPVHGTKRRSQIQTFLEHHGGPGVQHIAVASSDVLRTLREMRARSAMGGFDFLPPPLPKYYEGVRRIAGDVLSEAQIKECQELGVLVDRDDQGVLLQIFTKPVGDRPTLFLEMIQRIGCMEKDERGEEYQKGGCGGFGKGNFSELFKSIEDYEKSLEAKQSAAVQGS | 0 | 0 | 0 | 16 | 0 | 0 | 0 | 16 | 100 | 100 | non-resistant (non-resistant plants (scores 68-100)) | non-resistant (non-resistant plants (scores 68-100)) |

Reference: US20230212587A1, “Mutant Hydroxyphenylpyruvate Dioxygenase Polypeptide, Encoding Gene Thereof and Use Therefor” (Beijing Dabeinong Biotechnology Co., Ltd., priority 2019, published 2023)
